Laboratory results reported in article PMC3581536.

Biological target: MazFa tagged with 6 histidine at its C-terminus (Anabaena sp. PCC 7120)
Test: pull-down; MazEa and MazFa-His6 co-expressed in E. coli BL21(DE3)(pJS798); co-purified on Ni2+-NTA His.Bind resin under native conditions; 15% SDS-PAGE, bands identified by MALDI-TOF MS, densitometry with Image J

**Q.** For MazEa (natural protein), which stoichiometry N (MazEa per MazFa (molar ratio)) is on record?
**A.** Its stoichiometry N (MazEa per MazFa (molar ratio)) is 0.5.
